This note sets out measurements from article PMC9832876, “PpTCP18 is upregulated by lncRNA5 and controls branch number in peach (Prunus persica) through positive feedback regulation of strigolactone biosynthesis”.

Numbering of substitutions follows the chain as printed.

The target of data set [1] is T1, PpTCP18 (Prunus persica, UniProt A0A251PBZ8 1-468).
T1 sequence: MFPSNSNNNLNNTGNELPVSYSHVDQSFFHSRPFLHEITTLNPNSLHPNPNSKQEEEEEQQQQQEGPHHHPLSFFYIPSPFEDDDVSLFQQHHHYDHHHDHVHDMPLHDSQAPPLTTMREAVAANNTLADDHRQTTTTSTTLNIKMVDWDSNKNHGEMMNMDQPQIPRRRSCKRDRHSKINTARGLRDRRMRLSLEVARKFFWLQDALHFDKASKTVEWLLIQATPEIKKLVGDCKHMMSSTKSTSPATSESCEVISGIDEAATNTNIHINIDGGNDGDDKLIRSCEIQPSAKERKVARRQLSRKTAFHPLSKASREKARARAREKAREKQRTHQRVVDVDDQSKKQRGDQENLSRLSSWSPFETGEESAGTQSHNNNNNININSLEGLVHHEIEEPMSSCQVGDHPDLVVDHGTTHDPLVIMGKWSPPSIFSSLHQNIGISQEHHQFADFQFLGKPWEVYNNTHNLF
Briefly: EMSA; weakened by 100-fold unlabeled probe; Thermo Scientific EMSA kit, manufacturer's instructions; buffer, salt, pH and temperature not stated. As to conditions: protein: recombinant; tags: MBP; chain copies: 2; label: 5' biotin; blunt.

The target of data set [2] is T1, PpTCP18. Briefly: EMSA; Thermo Scientific EMSA kit, manufacturer's instructions; buffer, salt, pH and temperature not stated. As to conditions: protein: recombinant; tags: MBP; chain copies: 2; label: 5' biotin; blunt. A general note: In EMSA bound probe runs differently from free probe, usually more slowly.

B1: PpLBO1 promoter probe (dsDNA)
DNA 1: GTAAATACTCCAAACCATTACACTAGTGGGTCCTTTACTAATTACATTGTTTTAA
DNA 2: TTAAAACAATGTAATTAGTAAAGGACCCACTAGTGTAATGGTTTGGAGTATTTAC
Consider B1, for which the binding result in data set [1] was “binds”.

B2: PpLBO1 mutated probe (GGGTCC to AAAAAA) (dsDNA)
DNA 1: B1 DNA 1 with G28A, G29A, G30A, T31A, C32A, C33A
DNA 2: B1 DNA 2 with G23T, G24T, A25T, C26T, C27T, C28T
As for B2, the binding result in data set [2] was “no binding”.

B3: PpMAX4 promoter probe (dsDNA)
DNA 1: ATATTGTAATTTTTCACTGGCATACTGGTCCCTAATCACCAATTAACGCAACAT
DNA 2: ATGTTGCGTTAATTGGTGATTAGGGACCAGTATGCCAGTGAAAAATTACAATAT
Turning to B3, in data set [1], the binding result was “binds”.

B4: PpMAX4 mutated probe (GGTCCC to AAAAAA) (dsDNA)
DNA 1: B3 DNA 1 with G27A, G28A, T29A, C30A, C31A, C32A
DNA 2: B3 DNA 2 with G23T, G24T, G25T, A26T, C27T, C28T
As to B4, the binding result in data set [2] is recorded as “no binding”.

B5: PpMAX3 promoter probe (dsDNA)
DNA 1: CGTAACCCTCCATTTAAAAAAGTGGGTCCCAAATCCCAAAGCATGAGTGGATGGAGAGGAA
DNA 2: TTCCTCTCCATCCACTCATGCTTTGGGATTTGGGACCCACTTTTTTAAATGGAGGGTTACG
B5: the binding result in data set [1] is on record as “binds”.
